Reference: the supplement of paper PMC7877785
± gives the uncertainty stated by the source.

Assay: self-splicing fitness, log relative to wild type (ln ratio); higher = more splicing; Tetrahymena group I intron in knt gene, E. coli kanamycin selection, DiMSum; sequences stand for … in CUCUCU…GGAGGGAAAAGUUAUCAGGCAUGCACCUGGUAGCUAGUCUUUAAACCAAUAGAUUGCAUCGGUUUAAAAGGCAAGACCGUCAAAUUGCGGGAAAGGGGUCAACAGCCGUUCAGUACCAAGUCUCAGGGGAAACUUUGAGAUGGCCUUGCAAAGGGUAUGGUAAUAAGCUGACGGACAUGGUCCUAACCACGCAGCCAAGUCCUAAGUCAACAGAUCUUCUGUUGAUAUGGAUGCAGUUCACAGACUAAAUGUCGGUCGGGGAAGAUGUAUUCUUCUCAUAAGAUAUAGUCGGACCUCUCCUUAAUGGGAGCUAGCGGAUGAAGUGAUGCAACACUGGAGCCGCUGGGAACUAAUUUGUAUGCGAAAGUAUAUUGAUUAGUUUUGGAGUACUCGUGGUCG
Summary of the method: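 Pooled colonies went to amplicon sequencing on an Illumina HiSeq 2500 after six replicate transformations. The plates were LB agar with 100 μg/mL carbenicillin, 50 μM IPTG and 0.2% rhamnose, with or without 25 μg/mL kanamycin, incubated overnight at 37°C or 30°C. The E. coli BL21(DE3) library had all eight P1ex-region intron nucleotides randomised, the intron placed in the knt kanamycin-resistance gene on pET-22b(+). DiMSum fitness is the error-weighted combination of replicate fold changes, kanamycin against none, normalised to wild type.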

Sequence | self-splicing fitness (ln) (30 °C) | self-splicing fitness (ln) (37 °C)
GGUCAGCAAUAUUACGUAGG | -2.33 ± 0.15 | -1.84 ± 0.18
UUCGAGCAAUAUUACGAGGA | -1.87 ± 0.27 | -2.76 ± 0.44
UGGAAGCAAUAUUACGGCCG | -0.385 ± 0.18 | -0.0898 ± 0.3
AGGCAGCAAUAUUACGCCGG | -1.09 ± 0.15 | -1.66 ± 0.17
UUGAAGCAAUAUUACGUUCU | 0.25 ± 0.084 | -0.378 ± 0.1
GGACAGCAAUAUUACGCCCC | -0.414 ± 0.41 | –
GUUUAGCAAUAUUACGGCCG | -2.4 ± 0.18 | -0.926 ± 0.21
AAAGAGCAAUAUUACGUGGU | -4.52 ± 0.27 | -3.08 ± 0.18
CUGGAGCAAUAUUACGAAAU | -3.11 ± 0.22 | -2.72 ± 0.29
CAAAAGCAAUAUUACGCCAC | -2.1 ± 0.24 | -1.89 ± 0.34
AGGGAGCAAUAUUACGGUAA | – | -2.46 ± 0.44
AAUUAGCAAUAUUACGCAGG | -2.44 ± 0.23 | -1.89 ± 0.23
GUCUAGCAAUAUUACGUUUA | -0.64 ± 0.12 | -1 ± 0.1
CGAUAGCAAUAUUACGGGAC | -4.19 ± 0.36 | -2.42 ± 0.27
ACAUAGCAAUAUUACGCGCA | -0.42 ± 0.076 | -0.818 ± 0.088
GCGAAGCAAUAUUACGGCUA | 0.15 ± 0.15 | -0.618 ± 0.12
UAAAAGCAAUAUUACGUCGA | -1.39 ± 0.1 | -0.424 ± 0.12
AACCAGCAAUAUUACGGCGG | -0.585 ± 0.059 | -0.164 ± 0.078
UGAGAGCAAUAUUACGGUAG | -3.74 ± 0.34 | -2.88 ± 0.38
GCAUAGCAAUAUUACGGGUU | -1.79 ± 0.091 | -0.302 ± 0.088
GCGGAGCAAUAUUACGCAGC | -1.9 ± 0.35 | -2.35 ± 0.34
CACGAGCAAUAUUACGGGCG | -0.98 ± 0.11 | -1.14 ± 0.15
UUCUAGCAAUAUUACGAUCA | -1.69 ± 0.23 | -0.172 ± 0.18
ACGGAGCAAUAUUACGUGAA | -2.95 ± 0.15 | -2.35 ± 0.19

Sequence | self-splicing fitness (ln) (30 °C) | self-splicing fitness (ln) (37 °C)
CCGUAGCAAUAUUACGCAGA | -2.96 ± 0.25 | -2.74 ± 0.24
GGCUAGCAAUAUUACGACGG | -3.75 ± 0.37 | -2.18 ± 0.46
UUCUAGCAAUAUUACGUGUG | -0.91 ± 0.06 | -0.542 ± 0.082
ACCGAGCAAUAUUACGGGCU | -3.3 ± 0.16 | -2.59 ± 0.19
CUAAAGCAAUAUUACGAAGA | -2.46 ± 0.27 | -1.61 ± 0.3
GCGAAGCAAUAUUACGAGGC | – | -1.65 ± 0.45
GUAAAGCAAUAUUACGUGCG | -0.447 ± 0.065 | -0.538 ± 0.069
UUUAAGCAAUAUUACGUGAG | -0.404 ± 0.067 | -0.0655 ± 0.094
CGCGAGCAAUAUUACGCUAC | – | -2.08 ± 0.25
AGCCAGCAAUAUUACGAACU | -0.257 ± 0.11 | 0.407 ± 0.14
UGUGAGCAAUAUUACGGCCU | -1.89 ± 0.27 | -1.18 ± 0.32
AGGAAGCAAUAUUACGCUUU | -4.15 ± 0.39 | -2.32 ± 0.27
UAGUAGCAAUAUUACGCAGC | -2.96 ± 0.47 | –
ACGCAGCAAUAUUACGUCCU | -0.15 ± 0.058 | 0.354 ± 0.07
CGCCAGCAAUAUUACGUGGC | -3.72 ± 0.2 | -2.5 ± 0.2
CGGUAGCAAUAUUACGUUAG | 0.11 ± 0.074 | 0.0358 ± 0.097
GGGUAGCAAUAUUACGUGUC | -2.16 ± 0.18 | -0.684 ± 0.15
CGGGAGCAAUAUUACGCUAG | -2.57 ± 0.27 | -1.27 ± 0.35
ACCAAGCAAUAUUACGCCCA | -1.06 ± 0.13 | -0.545 ± 0.17
AUAGAGCAAUAUUACGGCGA | -0.73 ± 0.059 | 0.0474 ± 0.076
UUGUAGCAAUAUUACGGACG | -1.33 ± 0.19 | -0.721 ± 0.19
AGCCAGCAAUAUUACGAUUG | -4.59 ± 0.3 | -0.923 ± 0.19
UGCUAGCAAUAUUACGACAG | -0.698 ± 0.059 | 0.337 ± 0.093
AGGCAGCAAUAUUACGGUCA | -0.0713 ± 0.069 | -0.148 ± 0.079
